The DeepSol protein solubility set

Experiment: soluble on expression in E. coli; label from the status in PepcDB or PDB records

| Sequence | soluble on expression in E. coli |
| --- | --- |
| MKIEEEFISASVNPRSHCLTACKTAPLVAYASSLQIAVQTIPKDDSEVGVIKSTSERRHQKPITVLKRLKSSEIVADEFVTGGVDSRVVLWKLRGEHVEYVADLTGCDGSVGSVCGCVEDGRKVVAAAWVSETSNGFHAWWTSSIGDLLNSTEIKLDHKAFALCLDAISIQNSVLLAVGTSKRFVELYGESADKKSFSRLISVAGHTDWIHSIAFNDNPDHLLVASAGQDTYVRLWAIEPETDEKSENIREDSSTTPPDELTSSANLFSINYTPYRCSSHAVMQGHDDWVHSTVWSNDGRVLLTASSDKTCIIWKEIDNLWRDDVRLGIVGGGQAAGFFAAVFSSSLDLKDSGEKNAENVVISSSYFGGLHCWKSTDEQKTFWTALPMTGGHVGEVRDVDWHRSDDGDSGFLMSVGQDQTTRVFAKNGRQQSYVEIARPQVHGHDMQCLSFVNPSIFVSGAEEKVFRAFRAPKSFVKSLEAISGVPTEKSFGDSDLAEFGACVPALGLSNKPMVEGETVDGEHWEEDAFRAAPVVLTSPPTEDTLQQNTLWPEQHKLYGHGYEVYAVTANPTGNVLATACKSSHVEHSVVMLWSTSNWSKKSEIIGHQLTVTQIAWNPSGTRLLTVSRDRTAKLYTEKNGEVDGFDYDCVWTSGKQHTRIIWACDWIDDEHFVTASRDQKVIVWAESAGQTAPKATVKLDEPVTAIAAVSKDVIVAGLQTGELIVLRFDSEGLHVIEKIGANRIPIDSAVLRLRFSKNGRKLAVATTDAKLRIFNVSQ | not soluble |
| MITAERYHDISMGHRVVGHDHKCRHLHGHNYRIHFICSAPALDSIGRVVDFGVIKELLCQWLEDHWDHKMMLWEQDPLLPALRATVPDDLVAVPFNPTAENMAVYLTEVVGPMQLAGTGVTLIGCRVDETRKCSASYTL | not soluble |
| MSNELPWQVWTPDDLAPPPETFVPVEADNVTLTEDTPEPELTAEQQLEQELAQLKIQAHEQGYNAGLAEGRQKGHAQGYQEGLAQGLEQGQAQAQTQQAPIHARMQQLVSEFQNTLDALDSVIASRLMQMALEAARQVIGQTPAVDNSALIKQIQQLLQQEPLFSGKPQLRVHPDDLQRVEEMLGATLSLHGWRLRGDPTLHHGGCKVSADEGDLDASVATRWQELCRLAAPGVL | not soluble |
| MGSDKIHHHHHHMKIAVVGAGLTGLKTAKELAEHAKVVVFEPDDVGGLVATFREFSIEKFYHHCFRDDAFLLEEIKRCGLKSKLVWKIAKTGFAANGKIYPLNTPFEILRYPLLTFGEKIRLARFTLKSRKLNYEDFDDVGVSEGIREELGEGLLERFFMPLLRSKFGENAEKVSYAWLLGRVAIRSNRKYSGEEIGYIRHGFQQLVDKMAEGLEIRRERARIRKNARWDVNGEDFDAVVYTAPLSELGELAEKLGIPEVRYQSSVCALIGAEETLTENIYWTNIADKMSFGAVIEHTNFMPFEDYGIHLMYLAAYSTPDGWLFNLSDKEIEKLFLSDLRKLGFKTESVRFVRVFKAKYSGPIYEKGYRRKITPYRVAEGFYVAGMTSRPNYPERSMNGSIRAGKEVAEQVKEDLL | not soluble |
| MFDDQDEIHPLLAGAPQTTEFRKLRKRIVREVREAIETYGMVERGARWLVCLSGGKDSYTLLAVLHELKWRGLLPVDLLACNLDQGQPGFPATVLPEFLSRMGVPHRIEYQDTYSIVMDKIPQGRTYCALCSRLRRGNLYRIAREEGCSAVVLGHHRDDILETFFMNLFHGGRLATMPPKLVNEDGDLFVYRPLAFVAEADCEKFARDMAYPIIPCDLCGSQEGLQRQQVKQILDGWEARSPGRRQVMFRALMNARPSHLLDPGLFDFLGLATAPRASEERQDEPPHLRGEA | not soluble |
| MQSNKAFNLEKQNHTPRKHHQHHHQQHHQQQQQQQQQQPPPPIPANGQQASSQNEGLTIDLKNFRKPGEKTFTQRSRLFVGNLPPDITEEEMRKLFEKYGKAGEVFIHKDKGFGFIRLETRTLAEIAKVELDNMPLRGKQLRVRFACHSASLTVRNLPQYVSNELLEEAFSVFGQVERAVVIVDDRGRPSGKGIVEFSGKPAARKALDRCSEGSFLLTTFPRPVTVEPMDQLDDEEGLPEKLVIKNQQFHKEREQPPRFAQPGSFEYEYAMRWKALIEMEKQQQDQVDRNIKEAREKLEMEMEAARHEHQVMLMRQDLMRRQEELRRMEELHNQEVQKRKQLELRQEEERRRREEEMRRQQEEMMRRQQEGFKGTFPDAREQEIRMGQMAMGGAMGINNRGAMPPAPVPPGTPAPPGPATMMPDGTLGLTPPTTERFGQAATMEGIGAIGGTPPAFNRPAPGAEFAPNKRRRY | soluble |
| MGSDKIHHHHHHMEGKALRQGSIAGKGAPRNTASLIQYAQDHFDAAHFQGLMAIYGRPLADRAVALTHDRGRRVVDFVRCSYLGLDNHPQIVAGAVEAMKEYGTLHWSCARTRLNFSILGDLEAALSELFDARVITYTTVLAANMGALPLIASGHLTGGVKPLMVFDRLAHATLAFHKGTIAAETRVETIAHNDLEALEMLCRTNGSVAFVCDGVYSMGGSADLARLRRLQERYGLFLYIDDAHGVSIFGKHGEGFARSQMSGPLGERTIVAASLGKGFGASGGLIMLGTARQEELFRRFAVAHAFSASLNVAAIGAARASQQLHLTEELTELQQRLRSRTALFDSLVPTEQQGSPLPIRTVEIGDEMTAIGAARALLDRGFYTSAIFFPTVARGRAGLRLCPTAGHSEDDIRGLGIAIQDVLKEISGR | not soluble |
| MDYLIVGAGFTGATLAERLAAAGKRVLVVDRRDHIGGNAYDEMDPHGVLVHRYGPHIFHTNSKKVFDYLSRFTEWRPYYHRVRAVVEGKEVPLPFSLATLRALFSPKLADRLEEKLIARFGYGARVPILRLREEEDPDLRFLADYVYKNVFEGYTLKQWGLRPEELSPSVTARVPVLVSHDTRYFQDAYQAMPKEGYTALFRRMLAHPNIKLLLQADWKEVEGEVKFARLVFTGPIDEFFGYLHGPLPYRSLRFRMELHPGPWAQEVGTVNYPNEHPYTRVTEFKHLTGQDYLPHSTLCYEYPEAYEPGRNEPYYPVPREENEERYRLYLEEAKKLKGVYFAGRLGDYRYYNMDQAVARALKLFEEIVHE | soluble |
| SIDSKLQTLGEQLMQGKRGAIVMIEPETGEVLCLVSSPSYDPSLLAGKDRGKNHLEMEHDRNKPLYARAIQATYPPGSTFKPAQGAIFLQEGVIRPTDAFSCYHGFPPLNNRPACHSHGSPLSLVPALATSCNAFFCWGLRAMLDNRRFYPSVQEAFEHWKNRIVGLGFGYRLGLDLPGERRGYIPNSKVYDKAYKGRWNSSTIISISIGQGEILATPLQIANLGVIIANRGRYRRPHVVKAIQGIPLDTAYTNWQNSGISPANMEYIVEGMARAVTGGTCHAANFAPGEIEVCGKTGTAENPHGKDHSAFLGFAPRNNPKVVVSVYVENGGFGAVYGVPIGRVMMEYYLREGKLSPEGEAVATKMSNTAIHYSNVF | not soluble |
| MDNIQQEKLKNLIRSLEKSASPQEAEYLMGEILVPLLAEDGYSIQAVGDQRDFGVDFIARKDKHEEQFPEEIAIEYKHYRKAAVGLDVVHRVLGAAMSMGLSRAMVITNSRFTYAAREAIRRSSPVGVELLDIDALRSWIGRIEEVPSIDVVQVNIIRREFSRRLIELILKNPRYLDEIEWREMERLLAEVFEGLGFSVRLTPGSKDGGKDIILTCQVATKNHTYYVEVKHWRSGQRVGSGAITEFLNVIINEQIDGGLYLSTYGYCSNSIESLTEIQRKSLRFGTENKVVTLCQSYVKAMSGIWAPDKLLPEVLYDNTL | not soluble |
| MNDEEKPCIENILSAAEELEKLGYEPVIIADASLRHEIDDKEQFRKLLEEGKFQQVPSGTSADHFILKMAEEEDAKILSNDVFRDYKDEFQDINSRRIPYTFREDKILIGTSGKPKKVKNILQKICNEALEHHHHHH | not soluble |
| MGSDKIHHHHHHSGKLRKSNESGAMRAFRDGEVTIMVNVNLFTEGIDLPGVDVCIMLRPTASLSLYLQFAMRALNPRDGKRAILIDHVGNHIRHGLPNDDRYWTLEGVDKRKSSSKEKEEAPKTCENCFATFYRDRIVDGKCPYCGEPLKIIKDIEKEATNETLTLINQGMEFVSIRGEMIEVTREEALVYKRVKRYGKKYERCESLAELKAFRIIHGYAPGWLWHKQKELNLWRN | not soluble |
| MKMNPRCTYCLLSRVHFQSKLSTDDEDLISRTIHECLGVMNKHYSPEAVSSRVATKVHRKCYEVLRDSDPYEVTKKLINQAALKVLPAAKEKIYENSPDDGELFKRAVLASVIANYFDFGIMGFDASEDKFEAAFLKYYEQGLDVDDTPEMLGLLQDVVYIADNCGEILFDAIVFDVIKKLGGNITLVVRGGPILTDVTLEEIKEFEIDKKVDRVMTTGSNAVGVLVEEAPAELLDAMKNATLIISKGMANYETLSEHNFGPIAYMLLTKCECVAEDLGLETGLSVAKLMNFPLEHHHHHH | soluble |
| MGLPKSAYKKLLIDCPTRVINKNCAQRVKDVSPLITNFEKWSDKRKKLYFKDEEEMVGQFHLENFNLKNNLYGRLLASPMRAEKISKLKSCRELLIPLKVVPSTGKDQHADKDKLKLVPTLDYSKSYKSSYVLNSASIVQDNLAAATSWFPISVLQTSTPKSLEVDSSTFITEYNANLHAFIKARLSVIPNVGPSSINRVLLICDKRKTPPIEIQVVSHGKGLPITQSVFNLGYLHEPTLEAIVSKDAVTNGIYLDADNDKDLIKHLYSTLLFHSVN | not soluble |
| GSNKLHLRVVTLIEHPFVFTREVDDEGLCPAGQLCLDPMTNDSSMLDRLFSSLHSSNDTVPIKFKKCCYGYCIDLLEQLAEDMNFDFDLYIVGDGKYGAWKNGHWTGLVGDLLSGTANMAVTSFSINTARSQVIDFTSPFFSTSLGILVRTRGTELSGIHDPKLHHPSQGFRFGTVRESSAEDYVRQSFPEMHEYMRRYNVPATPDGVQYLKNDPEKLDAFIMDKALLDYEVSIDADCKLLTVGKPFAIEGYGIGLPPNSPLTSNISELISQYKSHGFMDVLHDKWYKVVPCGK | soluble |
| AAGAAPVDISTLPRVKVDLVKPPFVHAHDQVAKTGPRVVEFTMTIEEKKLVIDREGTEIHAMTFNGSVPGPLMVVHENDYVELRLINPDTNTLLHNIDFHAATGALGGGALTQVNPGEETTLRFKATKPGVFVYHCAPEGMVPWHVTSGMNGAIMVLPRDGLKDEKGQPLTYDKIYYVGEQDFYVPKDEAGNYKKYETPGEAYEDAVKAMRTLTPTHIVFNGAVGALTGDHALTAAVGERVLVVHSQANRDTRPHLEGGHGDYVWATGKFRNPPDLDQETWLIPGGTAGAAFYTFRQPGVYAYVNHNLIEAFELGAAGHFKVTGEWNDDLMTSVVKPASM | soluble |
| MPKTISVRVTTMDAELEFAIQPNTTGKQLFDQVVKTIGLREVWFFGLQYQDTKGFSTWLKLNKKVTAQDVRKESPLLFKFRAKFYPEDVSEELIQDITQRLFFLQVKEGILNDDIYCPPETAVLLASYAVQSKYGDFNKEVHKSGYLAGDKLLPQRVLEQHKLNKDQWEERIQVWHEEHRGMLREDAVLEYLKIAQDLEMYGVNYFSIKNKKGSELWLGVDALGLNIYEQNDRLTPKIGFPWSEIRNISFNDKKFVIKPIDKKAPDFVFYAPRLRINKRILALCMGNHELYMRRRKP | soluble |
| MLNEQIFSNARVVTAEQVFIGTVVVRDGLIAEVQTGRSQLSQAQDLEGDFLLPGLVELHTDNLEKHLSPRPGVDWPSMSAVISHDAQIVAAGITTVFDALSIGDINPKGKRMQQLPAMLQAIADANEAGLTRADHLLHLRCEVSHPDTLNVFRDLVGQPLVQLVSVMEHAPGQRQFALESKYREYYMGKYHMSHEEMDHFIVEQVANSTEYADRYRRAIVELCLARGLSIASHDDATMAHVEESAGFGMNIAEFPTTLEAAQGCRQLGMSVLMGAPNIVRGGSHSGNVAAASLARHGLLDILSSDYYPASLLQAAFMLAEQDNDCELPHAINMVSRTPAIAAGLADRGEIRVGLRADLIQARNHAGLPVIDKVWRQGKRVF | not soluble |
| VPDSSTALRILVYSDNVQTRERVMRALGKRLHPDLPDLTYVEVATGPMVIRQMDRGGIDLAILDGEATPTGGMGIAKQLKDELASCPPILVLTGRPDDTWLASWSRAEAAVPHPVDPIVLGRTVLSLLRAPAH | soluble |
